Experimental data taken from PMC7937191 (Biochemical and biophysical research communications, 2020).

B1: α1d-AR-EYFP (α1d-adrenergic receptor with enhanced yellow fluorescent protein at the C-terminus) (receptor, UniProt P25100 1-572, looked up)
chain: MTFRDLLSVSFEGPRPDSSAGGSSAGGGGGSAGGAAPSEGPAVGGVPGGAGGGGGVVGAGSGEDNRSSAGEPGSAGAGGDVNGTAAVGGLVVSAQGVGVGVFLAAFILMAVAGNLLVILSVACNRHLQTVTNYFIVNLAVADLLLSATVLPFSATMEVLGFWAFGRAFCDVWAAVDVLCCTASILSLCTISVDRYVGVRHSLKYPAIMTERKAAAILALLWVVALVVSVGPLLGWKEPVPPDERFCGITEEAGYAVFSSVCSFYLPMAVIVVMYCRVYVVARSTTRSLEAGVKRERGKASEVVLRIHCRGAATGADGAHGMRSAKGHTFRSSLSVRLLKFSREKKAAKTLAIVVGVFVLCWFPFFFVLPLGSLFPQLKPSEGVFKVIFWLGYFNSCVNPLIYPCSSREFKRAFLRLLRCQCRRRRRRRPLWRVYGHHWRASTSGLRQDCAPSSGDAPPGAPLALTALPDPDPEPPGTPEMQAPVASRRKPPSAFREWRLLGPFRRPTTQLRAKVSSLSHKIRAGGAQRAEAACAQRSEVEAVSLGVPHEVAEGATCQAYELADYSNLRETDI
B2: α1a-AR-EYFP (α1a-adrenergic receptor with enhanced yellow fluorescent protein at the C-terminus) (receptor, UniProt P35348 1-466, looked up)
chain: MVFLSGNASDSSNCTQPPAPVNISKAILLGVILGGLILFGVLGNILVILSVACHRHLHSVTHYYIVNLAVADLLLTSTVLPFSAIFEVLGYWAFGRVFCNIWAAVDVLCCTASIMGLCIISIDRYIGVSYPLRYPTIVTQRRGLMALLCVWALSLVISIGPLFGWRQPAPEDETICQINEEPGYVLFSALGSFYLPLAIILVMYCRVYVVAKRESRGLKSGLKTDKSDSEQVTLRIHRKNAPAGGSGMASAKTKTHFSVRLLKFSREKKAAKTLGIVVGCFVLCWLPFFLVMPIGSFFPDFKPSETVFKIVFWLGYLNSCINPIIYPCSSQEFKKAFQNVLRIQCLCRKQSSKHALGYTLHPPSQAVEGQHKDMVRIPVGSRETFYRISKTDGVCEWKFFSSMPRGSARITVSKDQSSCTTARVRSKSFLQVCCCVGPSTPSLDKNHQVPTIKVHTISLSENGEEV
B3: α1b-AR-EYFP (α1b-adrenergic receptor with enhanced yellow fluorescent protein at the C-terminus) (receptor, UniProt P35368 1-520, looked up)
chain: MNPDLDTGHNTSAPAHWGELKNANFTGPNQTSSNSTLPQLDITRAISVGLVLGAFILFAIVGNILVILSVACNRHLRTPTNYFIVNLAMADLLLSFTVLPFSAALEVLGYWVLGRIFCDIWAAVDVLCCTASILSLCAISIDRYIGVRYSLQYPTLVTRRKAILALLSVWVLSTVISIGPLLGWKEPAPNDDKECGVTEEPFYALFSSLGSFYIPLAVILVMYCRVYIVAKRTTKNLEAGVMKEMSNSKELTLRIHSKNFHEDTLSSTKAKGHNPRSSIAVKLFKFSREKKAAKTLGIVVGMFILCWLPFFIALPLGSLFSTLKPPDAVFKVVFWLGYFNSCLNPIIYPCSSKEFKRAFVRILGCQCRGRGRRRRRRRRRLGGCAYTYRPWTRGGSLERSQSRKDSLDDSGSCLSGSQRTLPSASPSPGYLGRGAPPPVELCAFPEWKAPGALLSLPAPEPPGRRGRHDSGPLFTFKLLTEPESPGTDGGASNGGCEAAADVANGQPGFKSNMPLAPGQF

Target: CXCR4-RLuc (chemokine (C-X-C motif) receptor 4 with Renilla reniformis luciferase at the C-terminus) (UniProt P61073 1-352)
Sequence (P61073 whole entry): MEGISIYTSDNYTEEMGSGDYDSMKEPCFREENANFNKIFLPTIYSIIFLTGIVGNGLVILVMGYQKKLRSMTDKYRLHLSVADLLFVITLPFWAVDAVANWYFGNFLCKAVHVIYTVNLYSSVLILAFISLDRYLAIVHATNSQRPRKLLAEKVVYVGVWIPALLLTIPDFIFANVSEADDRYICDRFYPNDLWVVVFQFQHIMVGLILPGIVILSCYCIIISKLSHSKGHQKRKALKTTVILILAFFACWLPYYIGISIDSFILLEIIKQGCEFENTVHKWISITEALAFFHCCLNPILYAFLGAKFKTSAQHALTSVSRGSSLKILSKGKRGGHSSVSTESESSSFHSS
Experiment: FRET or BRET

Q: Which “BRET50 (EYFP/Lum)” value does the source give for B1 here?
A: 0.051 EYFP/Lum

Q: For B2, which “BRET50 (EYFP/Lum)” value is on record?
A: 0.055 EYFP/Lum

Q: With B3 as the binder, how does the “BRET50 (EYFP/Lum)” value read?
A: 0.072 EYFP/Lum
